Measured values: PMC7642414, “R-spondins are BMP receptor antagonists in Xenopus early embryonic development” (Nature Communications, 2020)

Key:
[1] = target: T1, recombinant human RSPO2 (human, UniProt Q6UXX9 22-243); assay: solid-phase in vitro binding assay (AP fusion read-out); ternary complex: recombinant RSPO protein on plate-coated ZNRF3 Fc chimera (4-6 h), read out through BMPR1A^ECD-AP; conditions: both partners purified
T1 construct: R-spondin 2, human, recombinant protein; source: bought: Peprotech 120-43

[2] = target: T2, recombinant human RSPO3 (human, UniProt Q9BXY4 22-272); assay: as above; conditions: both partners purified
T2 construct: R-spondin 3, human, recombinant protein; source: bought: Peprotech 120-44
T2 sequence (looked up): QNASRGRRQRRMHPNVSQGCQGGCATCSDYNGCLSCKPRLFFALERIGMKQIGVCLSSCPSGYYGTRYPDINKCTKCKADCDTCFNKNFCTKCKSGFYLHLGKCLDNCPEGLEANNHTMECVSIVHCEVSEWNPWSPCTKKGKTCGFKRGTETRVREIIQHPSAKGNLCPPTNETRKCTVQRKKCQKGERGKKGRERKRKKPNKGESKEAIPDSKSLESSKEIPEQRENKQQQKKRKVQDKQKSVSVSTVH

[3] = target: T1, recombinant human RSPO2; assay: solid-phase in vitro binding assay (AP fusion read-out); Scatchard plot; RSPO2 recombinant protein (Peprotech 120-43) and BMPR1A^ECD-AP; conditions: one partner purified

T1 sequence (Q6UXX9 22-243): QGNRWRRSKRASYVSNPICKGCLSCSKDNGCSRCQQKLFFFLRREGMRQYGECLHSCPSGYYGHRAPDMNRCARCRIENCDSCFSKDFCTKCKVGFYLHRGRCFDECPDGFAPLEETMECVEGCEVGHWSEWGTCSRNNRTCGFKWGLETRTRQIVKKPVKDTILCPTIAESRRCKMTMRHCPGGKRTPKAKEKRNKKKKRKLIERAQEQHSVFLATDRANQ

B1: recombinant human ZNRF3 Fc Chimera protein (Fc fusion, UniProt Q9ULT6 56-219, looked up)
chain: KETAFVEVVLFESSPSGDYTTYTTGLTGRFSRAGATLSAEGEIVQMHPLGLCNNNDEEDLYEYGWVGVVKLEQPELDPKPCLTVLGKAKRAVQRGATAVIFDVSENPEAIDQLNQGSEDPLKRPVVYVKGADAIKLMNIVNKQKVARARIQHRPPRQPTEYFDM
notes: Zinc and ring finger 3 (ZNRF3), human, as Fc chimera; source: bought: R&D systems 7994-RF
binding result [1]: binds | binding result [2]: binds

B2: BMPR1A^ECD-AP (domain or fragment, human, UniProt P36894 24-152, looked up)
chain: QNLDSMLHGTGMKSDSDQKKSENGVTLAPEDTLPFLKCYCSGHCPDDAINNTCITNGHCFAIIEEDDQGETTLASGCMKYEGSDFQCKDSPKAQLRRTIECCRTNLCNQYLQPTLPPVVIGPFFDGSIR
notes: Extracellular domain of BMPR1A/ALK3; also called extracellular domain of BMPR1A; source: HEK293T, transiently transfected, conditioned medium
Kd [3]: ~4.8 nM
